Source: patent US20190153406
Numbering of substitutions follows the chain as printed. Names and notes keep the numbering of the source.

B1: mouse MG53 S255A mutant (protein)
chain: MSAAPGLLRQELSCPLCLQLFDAPVTAECGHSFCRACLIRVAGEPAADGTVACPCCQAPTRPQALSTNLQLSRLVEGLAQVPQGHCEEHLDPLSIYCEQDRTLVCGVCASLGSHRGHRLLPAAEAQARLKTQLPQQKMQLQEACMRKEKTVAVLEHQLVEVEETVRQFRGAVGEQLGKMRMFLAALESSLDREAERVRGDAGVALRRELSSLNSYLEQLRQMEKVLEEVADKPQTEFLMKFCLVTSRLQKILSEAPPPARLDIQLPVISDDFKFQVWKKMFRALMPALEELTFDPSSAHPSLVVSSSGRRVECSDQKAPPAGEDTRQFDKAVAVVAQQLLSQGEHYWEVEVGDKPRWALGVMAADASRRGRLHAVPSQGLWLLGLRDGKILEAHVEAKEPRALRTPERPPARIGLYLSFADGVLAFYDASNPDVLTPIFSFHERLPGPVYPIFDVCWHDKGKNAQPLLLVGPEQEQA
B2: mouse wild-type MG53 (protein)
chain: B1 chain with A255S
B3: human wild-type MG53 (protein)
chain: MSAAPGLLHQELSCPLCLQLFDAPVTAECGHSFCRACLGRVAGEPAADGTVLCPCCQAPTRPQALSTNLQLARLVEGLAQVPQGHCEEHLDPLSIYCEQDRALVCGVCASLGSHRGHRLLPAAEAHARLKTQLPQQKLQLQEACMRKEKSVAVLEHQLVEVEETVRQFRGAVGEQLGKMRVFLAALEGSLDREAERVRGEAGVALRRELGSLNSYLEQLRQMEKVLEEVADKPQTEFLMKYCLVTSRLQKILAESPPPARLDIQLPIISDDFKFQVWRKMFRALMPALEELTFDPSSAHPSLVVSSSGRRVECSEQKAPPAGEDPRQFDKAVAVVAHQQLSEGEHYWEVDVGDKPRWALGVIAAEAPRRGRLHAVPSQGLWLLGLREGKILEAHVEAKEPRALRSPERRPTRIGLYLSFGDGVLSFYDASDADALVPLFAFHERLPRPVYPFFDVCWHDKGKNAQPLLLVGPEGAEA
B4: human MG53 S255A mutant (protein)
chain: B3 chain with S255A

Key:
[1] = target: IRS1 (insulin receptor substrate-1), species not stated
Sequence of IRS1 (insulin receptor substrate-1), species not stated (P35568 whole entry): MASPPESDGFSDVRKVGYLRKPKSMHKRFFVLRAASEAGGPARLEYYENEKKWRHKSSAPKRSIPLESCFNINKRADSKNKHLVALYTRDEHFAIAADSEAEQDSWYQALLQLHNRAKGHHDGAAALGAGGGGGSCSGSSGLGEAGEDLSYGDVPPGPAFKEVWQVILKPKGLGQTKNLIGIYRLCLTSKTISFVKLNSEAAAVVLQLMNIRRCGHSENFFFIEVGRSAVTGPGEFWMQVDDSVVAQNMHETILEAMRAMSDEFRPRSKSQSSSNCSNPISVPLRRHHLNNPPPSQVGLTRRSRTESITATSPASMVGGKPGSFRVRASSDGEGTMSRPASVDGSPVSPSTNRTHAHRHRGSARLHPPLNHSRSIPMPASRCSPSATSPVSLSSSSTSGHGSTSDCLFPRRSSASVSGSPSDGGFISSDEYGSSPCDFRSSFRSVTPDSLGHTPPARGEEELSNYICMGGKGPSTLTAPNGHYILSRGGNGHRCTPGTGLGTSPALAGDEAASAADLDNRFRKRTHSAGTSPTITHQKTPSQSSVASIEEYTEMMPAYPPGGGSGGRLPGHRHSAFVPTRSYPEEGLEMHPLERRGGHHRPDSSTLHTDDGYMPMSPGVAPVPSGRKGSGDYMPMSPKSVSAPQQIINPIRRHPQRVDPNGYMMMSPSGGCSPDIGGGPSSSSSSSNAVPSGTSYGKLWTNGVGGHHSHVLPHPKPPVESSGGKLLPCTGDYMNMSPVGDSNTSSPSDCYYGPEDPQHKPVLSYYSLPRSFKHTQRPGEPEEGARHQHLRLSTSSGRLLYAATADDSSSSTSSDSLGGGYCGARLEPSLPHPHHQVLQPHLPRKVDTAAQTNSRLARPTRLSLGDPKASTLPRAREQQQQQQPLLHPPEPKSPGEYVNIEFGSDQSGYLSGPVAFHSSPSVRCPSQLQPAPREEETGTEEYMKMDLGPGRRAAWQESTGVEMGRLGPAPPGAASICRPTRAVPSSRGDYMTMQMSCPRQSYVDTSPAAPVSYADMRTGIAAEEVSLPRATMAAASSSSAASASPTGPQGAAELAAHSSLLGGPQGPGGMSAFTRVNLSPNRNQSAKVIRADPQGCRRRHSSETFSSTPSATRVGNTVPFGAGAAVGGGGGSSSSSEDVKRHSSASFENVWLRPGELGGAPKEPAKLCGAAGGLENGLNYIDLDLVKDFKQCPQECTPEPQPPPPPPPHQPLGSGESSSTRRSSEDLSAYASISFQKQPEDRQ

| Protein | degradation of IRβ, Western Blot, HEK293T co-expression (FIG. 16B) (insulin receptor IR) | degradation of precursor protein of IRβ, HEK293T co-expression (insulin receptor IR) | further results |
| --- | --- | --- | --- |
| B1 | mouse MG53-D-RING truncated mutant and mouse MG53 S255A mutant can hardly mediate IRβ degradation | mouse MG53-D-RING truncated mutant and mouse MG53 S255A mutant almost completely inhibited MG53-mediated degradation | degradation of IRS1, Western Blot, HEK293T co-expression (FIG. 16) [1]: mouse MG53 S255A mutant can only mediate about 40% degradation of IRS1 |
| B2 | Mouse wild-type MG53 can mediate about 50% degradation of IRβ | mouse wild-type MG53 can mediate the degradation of precursor protein of IRβ | MG53-mediated substrate degradation, Western Blot, HEK293T co-expression (FIG. 16) [1]: human or mouse wild-type MG53 can significantly mediate IRS1 degradation |
| B3 | – | – | MG53-mediated substrate degradation, Western Blot, HEK293T co-expression (FIG. 17) [1]: human or mouse wild-type MG53 can significantly mediate IRS1 degradation |
| B4 | – | – | degradation of IRS1, Western Blot, HEK293T co-expression (FIG. 17) [1]: human MG53 S255A mutant can only mediate about 10% degradation of IRS1 |
